Measured values published in the supplement of paper PMC9112550, “Optimization of the antimicrobial peptide Bac7 by deep mutational scanning” (BMC Biology, 2022).

Test system: Escherichia coli TOP10
Test: shrunken log2 fold change of peptide-encoding DNA abundance (4.5 h post-induction vs induction); higher = less antimicrobial activity (less host growth inhibition)
Conditions: time post-induction: 4.5 h; library: site-saturation at positions 5, 18, 19, 20
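Also: peptides expressed intracellularly from a pBAD plasmid library in pooled LB shake-flask culture, induced with 0.3% L-arabinose, DNA abundance read by NGS, three biological replicates, DESeq2 with apeglm shrinkage.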

| Sequence | shrunken log2 fold change |
| --- | --- |
| RRIRFRPPRLPRPRPRPPWKPRP | 0.154 |
| RRIRFRPPRLPRPRPRPPWNPRP | -0.128 |
| RRIRFRPPRLPRPRPRPQAKPRP | 0.128 |
| RRIRFRPPRLPRPRPRPQCLPRP | -0.0767 |
| RRIRFRPPRLPRPRPRPQCPPRP | -0.225 |
| RRIRFRPPRLPRPRPRPQERPRP | 0.0046 |
| RRIRFRPPRLPRPRPRPQFQPRP | 0.0151 |
| RRIRFRPPRLPRPRPRPQFYPRP | -0.592 |
| RRIRFRPPRLPRPRPRPQKQPRP | -0.199 |
| RRIRFRPPRLPRPRPRPQKRPRP | 0.297 |
| RRIRFRPPRLPRPRPRPQLDPRP | 0.123 |
| RRIRFRPPRLPRPRPRPQLIPRP | -0.313 |
| RRIRFRPPRLPRPRPRPQLKPRP | -0.0312 |
| RRIRFRPPRLPRPRPRPQNGPRP | -0.0443 |
| RRIRFRPPRLPRPRPRPQNKPRP | -0.592 |
| RRIRFRPPRLPRPRPRPQNLPRP | -0.218 |
| RRIRFRPPRLPRPRPRPQNNPRP | -0.656 |
| RRIRFRPPRLPRPRPRPQPCPRP | 0.078 |
| RRIRFRPPRLPRPRPRPQPLPRP | -0.0304 |
| RRIRFRPPRLPRPRPRPQPPPRP | 0.94 |
| RRIRFRPPRLPRPRPRPQQAPRP | 0.366 |
| RRIRFRPPRLPRPRPRPQQLPRP | -0.437 |
| RRIRFRPPRLPRPRPRPQTKPRP | -0.142 |
| RRIRFRPPRLPRPRPRPQWSPRP | -0.485 |
| RRIRFRPPRLPRPRPRPRAEPRP | 0.363 |

| Sequence | shrunken log2 fold change |
| --- | --- |
| RRIRFRPPRLPRPRPRPRCMPRP | -0.124 |
| RRIRFRPPRLPRPRPRPRCVPRP | -0.0244 |
| RRIRFRPPRLPRPRPRPRDNPRP | -0.173 |
| RRIRFRPPRLPRPRPRPREDPRP | 0.0505 |
| RRIRFRPPRLPRPRPRPRFMPRP | -0.117 |
| RRIRFRPPRLPRPRPRPRFPPRP | 0.0497 |
| RRIRFRPPRLPRPRPRPRFSPRP | 0.033 |
| RRIRFRPPRLPRPRPRPRGKPRP | 0.734 |
| RRIRFRPPRLPRPRPRPRGPPRP | 0.763 |
| RRIRFRPPRLPRPRPRPRIGPRP | 0.543 |
| RRIRFRPPRLPRPRPRPRIIPRP | -0.514 |
| RRIRFRPPRLPRPRPRPRKDPRP | -0.302 |
| RRIRFRPPRLPRPRPRPRLFPRP | -0.0286 |
| RRIRFRPPRLPRPRPRPRLPPRP | 1.13 |
| RRIRFRPPRLPRPRPRPRMGPRP | 0.302 |
| RRIRFRPPRLPRPRPRPRMWPRP | 0.127 |
| RRIRFRPPRLPRPRPRPRNPPRP | 0.118 |
| RRIRFRPPRLPRPRPRPRQIPRP | 0.0287 |
| RRIRFRPPRLPRPRPRPRQQPRP | 0.0599 |
| RRIRFRPPRLPRPRPRPRRGPRP | 0.435 |
| RRIRFRPPRLPRPRPRPRRKPRP | 0.246 |
| RRIRFRPPRLPRPRPRPRTCPRP | -0.0542 |
| RRIRFRPPRLPRPRPRPRTPPRP | 0.534 |
| RRIRFRPPRLPRPRPRPRWNPRP | 0.00853 |
| RRIRFRPPRLPRPRPRPRWSPRP | 0.112 |

| Sequence | shrunken log2 fold change |
| --- | --- |
| RRIRFRPPRLPRPRPRPSAEPRP | 0.0747 |
| RRIRFRPPRLPRPRPRPSDLPRP | -0.0388 |
| RRIRFRPPRLPRPRPRPSETPRP | -0.13 |
| RRIRFRPPRLPRPRPRPSGMPRP | -0.637 |
| RRIRFRPPRLPRPRPRPSHNPRP | -0.782 |
| RRIRFRPPRLPRPRPRPSKPPRP | -0.0327 |
| RRIRFRPPRLPRPRPRPSLMPRP | -0.6 |
| RRIRFRPPRLPRPRPRPSLQPRP | -0.31 |
| RRIRFRPPRLPRPRPRPSMDPRP | -0.819 |
| RRIRFRPPRLPRPRPRPSNLPRP | -0.56 |
| RRIRFRPPRLPRPRPRPSNTPRP | -0.422 |
| RRIRFRPPRLPRPRPRPSPGPRP | -0.101 |
| RRIRFRPPRLPRPRPRPSSEPRP | -0.134 |
| RRIRFRPPRLPRPRPRPSSNPRP | -0.715 |
| RRIRFRPPRLPRPRPRPSTTPRP | -0.362 |
| RRIRFRPPRLPRPRPRPSTVPRP | -0.325 |
| RRIRFRPPRLPRPRPRPSVCPRP | -0.16 |
| RRIRFRPPRLPRPRPRPSVGPRP | -0.453 |
| RRIRFRPPRLPRPRPRPSYCPRP | -0.345 |
| RRIRFRPPRLPRPRPRPSYLPRP | -0.736 |
| RRIRFRPPRLPRPRPRPSYTPRP | -0.771 |
| RRIRFRPPRLPRPRPRPTCNPRP | -0.178 |
| RRIRFRPPRLPRPRPRPTDGPRP | 0.0745 |
| RRIRFRPPRLPRPRPRPTDLPRP | 0.15 |
| RRIRFRPPRLPRPRPRPTDYPRP | -0.578 |

| Sequence | shrunken log2 fold change |
| --- | --- |
| RRIRFRPPRLPRPRPRPTEGPRP | -0.289 |
| RRIRFRPPRLPRPRPRPTEMPRP | -0.105 |
| RRIRFRPPRLPRPRPRPTFGPRP | 0.0623 |
| RRIRFRPPRLPRPRPRPTGAPRP | 0.257 |
| RRIRFRPPRLPRPRPRPTGEPRP | 0.583 |
| RRIRFRPPRLPRPRPRPTGIPRP | -0.26 |
| RRIRFRPPRLPRPRPRPTGKPRP | 0.205 |
| RRIRFRPPRLPRPRPRPTHEPRP | 0.171 |
| RRIRFRPPRLPRPRPRPTHVPRP | 0.119 |
| RRIRFRPPRLPRPRPRPTHYPRP | -0.0275 |
| RRIRFRPPRLPRPRPRPTIGPRP | -0.0631 |
| RRIRFRPPRLPRPRPRPTKKPRP | -0.0226 |
| RRIRFRPPRLPRPRPRPTKRPRP | 0.269 |
| RRIRFRPPRLPRPRPRPTLRPRP | 0.0831 |
| RRIRFRPPRLPRPRPRPTMEPRP | -0.266 |
| RRIRFRPPRLPRPRPRPTMTPRP | -0.0114 |
| RRIRFRPPRLPRPRPRPTNHPRP | -0.536 |
| RRIRFRPPRLPRPRPRPTPQPRP | 0.366 |
| RRIRFRPPRLPRPRPRPTPRPRP | 0.803 |
| RRIRFRPPRLPRPRPRPTQEPRP | 0.321 |
| RRIRFRPPRLPRPRPRPTRCPRP | 0.299 |
| RRIRFRPPRLPRPRPRPTTRPRP | 0.177 |
| RRIRFRPPRLPRPRPRPTVCPRP | -0.0464 |
| RRIRFRPPRLPRPRPRPTWIPRP | -0.222 |
| RRIRFRPPRLPRPRPRPTYWPRP | 0.385 |

| Sequence | shrunken log2 fold change |
| --- | --- |
| RRIRFRPPRLPRPRPRPVANPRP | -0.1 |
| RRIRFRPPRLPRPRPRPVHKPRP | -0.142 |
| RRIRFRPPRLPRPRPRPVIGPRP | -0.234 |
| RRIRFRPPRLPRPRPRPVILPRP | -1 |
| RRIRFRPPRLPRPRPRPVLAPRP | 0.239 |
| RRIRFRPPRLPRPRPRPVLMPRP | -0.13 |
| RRIRFRPPRLPRPRPRPVPKPRP | -0.208 |
| RRIRFRPPRLPRPRPRPVPMPRP | 0.108 |
| RRIRFRPPRLPRPRPRPVPPPRP | 0.46 |
| RRIRFRPPRLPRPRPRPVQRPRP | -0.072 |
| RRIRFRPPRLPRPRPRPVRKPRP | -0.355 |
| RRIRFRPPRLPRPRPRPVRNPRP | 0.077 |
| RRIRFRPPRLPRPRPRPVSMPRP | 0.174 |
| RRIRFRPPRLPRPRPRPVTEPRP | -0.0132 |
| RRIRFRPPRLPRPRPRPVWPPRP | 0.263 |
| RRIRFRPPRLPRPRPRPVYAPRP | -0.444 |
| RRIRFRPPRLPRPRPRPVYQPRP | -0.0402 |
| RRIRFRPPRLPRPRPRPVYVPRP | -0.93 |
| RRIRFRPPRLPRPRPRPWEFPRP | -0.12 |
| RRIRFRPPRLPRPRPRPWENPRP | -0.0884 |
| RRIRFRPPRLPRPRPRPWHCPRP | -0.028 |
| RRIRFRPPRLPRPRPRPWIMPRP | -0.206 |
| RRIRFRPPRLPRPRPRPWMPPRP | -0.25 |
| RRIRFRPPRLPRPRPRPWMSPRP | -0.0139 |
| RRIRFRPPRLPRPRPRPWPRPRP | 0.626 |

| Sequence | shrunken log2 fold change |
| --- | --- |
| RRIRFRPPRLPRPRPRPWQYPRP | 0.0191 |
| RRIRFRPPRLPRPRPRPWTAPRP | -0.283 |
| RRIRFRPPRLPRPRPRPYANPRP | -1.28 |
| RRIRFRPPRLPRPRPRPYAYPRP | -0.0128 |
| RRIRFRPPRLPRPRPRPYCIPRP | -0.597 |
| RRIRFRPPRLPRPRPRPYDDPRP | -0.0579 |
| RRIRFRPPRLPRPRPRPYDKPRP | -0.374 |
| RRIRFRPPRLPRPRPRPYDRPRP | -0.0252 |
| RRIRFRPPRLPRPRPRPYECPRP | -0.0179 |
| RRIRFRPPRLPRPRPRPYFQPRP | -1.44 |
| RRIRFRPPRLPRPRPRPYGPPRP | -0.266 |
| RRIRFRPPRLPRPRPRPYHFPRP | -0.194 |
| RRIRFRPPRLPRPRPRPYINPRP | -0.647 |
| RRIRFRPPRLPRPRPRPYIRPRP | -0.755 |
| RRIRFRPPRLPRPRPRPYKAPRP | -0.153 |
| RRIRFRPPRLPRPRPRPYKKPRP | -0.415 |
| RRIRFRPPRLPRPRPRPYLHPRP | -0.454 |
| RRIRFRPPRLPRPRPRPYMCPRP | -0.0146 |
| RRIRFRPPRLPRPRPRPYNAPRP | -0.714 |
| RRIRFRPPRLPRPRPRPYNPPRP | -0.237 |
| RRIRFRPPRLPRPRPRPYNRPRP | -0.262 |
| RRIRFRPPRLPRPRPRPYPYPRP | -0.1 |
| RRIRFRPPRLPRPRPRPYQFPRP | 0.0166 |
| RRIRFRPPRLPRPRPRPYRSPRP | -0.975 |
| RRIRFRPPRLPRPRPRPYRVPRP | -0.702 |
